B1: antibody 423 (antibody, V domains shown)
VH: EVQLVESGGGLIQPGGSLRISCAASGFTVRNNHMSWVRQAPGKGLEWVSVFYRGGTTYYADSVKGRFTISRDDSKNTVDLQMNSLRGEDTAVYYCARGLSVAASGYFDCWGQGTLVTVSS
VL: DIQMTQSPSSVSASVGDTVTITCRANQGISSWLAWYQQVPGKAPELLIYATSTLQSGVPSRFSGSGSGTDFTLTISSLQPEDFATYYCQQANSFPFTFGPGTKVDIK
B2: antibody 431 (antibody, V domains shown)
VH: QVQLVESGGGVVQPGRSLRLSCAASGFTFSSYAMHWVRQAPGKGLEWLAVISYDGSNKYYADSVKGRFTISRDNSKNTLYLQMNSLRAEDTAVYYCARSFRGGYYYGMDVWGQGTTVTVSS
VL: DIQLTQSPSFLSASVGDRVTITCRASQGISSYLAWYQQKPGKAPKLLIYAASTLQSGVPSRFSGSGSGTEFTLTISSLQPEDFATYYCQQLNSYPLFTFGPGTKVDIK
B3: antibody 439 (antibody, V domains shown)
VH: QVQLVESGGGVVQPGRSLRLSCAASGFTFSSYAMHWVRQAPGKGLEWVAVISYDGSNKYYADSVKGRFTISRDNSKNTLYLQMNSLRAEDTAVYYCARPPRGGSYYPFDPWGQGTLVTVSS
VL: not shown
B4: antibody 559 (antibody, V domains shown)
VH: QVQLQESGPGLVKLSETLSLTCTVSGYSISSGYYWGWIRQPPGKGLEWIGSIYHSGSTYYNPSLKSRVTISVDTSKNQFSLKLSSVTAADTAVYYCAREETLGSSWYESYIDYWGQGTLVTVSS
VL: SYVLTQPPSVSVAPGKTARITCGGNNIGSKSVHWYQQKPGQAPVLVIYYDSDRPSGIPERFSGSNSGNTATLTISRVEAGDEADYYCQVWDSSSDHPRVFGGGTKLTVL
B5: antibody 456 (antibody, V domains shown)
VH: QVQLQQWGAGLLKPSETLSLTCAVYGGSFSGYYWSWIRQPPGKGLEWIGEINHSGSTNYNPSLKSRVTISVDTSKNQFSLKLSSVTAADTAVYYCARDGSGSYYLSYYFDYWGQGTLVTVSS
VL: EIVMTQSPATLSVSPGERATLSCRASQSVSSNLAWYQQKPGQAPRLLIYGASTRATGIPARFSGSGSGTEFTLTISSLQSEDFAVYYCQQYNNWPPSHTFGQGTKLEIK
B6: antibody 446 (antibody, V domains shown)
VH: QVQLVESGGGVVQPGRSLRLSCAASGFTFSSYAMHWVRQAPGKGLEWVAVISYDGSNKYYADSVKGRFTISRDNSKNTLYLQMNSLRAEDTAVYYCARPNSGSYFGYFQHWGQGTLVTVSS
VL: QSVLTQPPSVSGAPGQRVTISCTGSSSNIGAGYDVHWYQQLPGTAPKLLIYGNSNRPSGVPDRFSGSKSGTSASLAITGLQAEDEADYYCQSYDSSLSGFYVFGTGTKVTVL
B7: antibody 372 (antibody, V domains shown)
VH: QVQLVESGGGVVQPGRSLRLSCAASGFTFSSYAMHWVRQAPGKGLEWVAVISYDGSNKYYADSVKGRFTISRDNSKNTLYLQMNSLRAEDTAVYYCARDLGTSALLWFGELFLNYGMDVWGQGTTVTVSS
VL: QSALTQPRSVSGSPGQSVTISCTGTSSDVGGYNYVSWYQQHPGKAPKLMIYDVSKRPSGVPDRFSGSKSGNTASLTISGLQAEDEADYYCCSYAGSPILVFGGGTKLTVL
B8: antibody 367 (antibody, V domains shown)
VH: QVQLVQSGAEVKKPGASVKVSCKASGYTFTGYYIHWVRQAPGQGLEWMGWINPNSGGTIYAQKFQGRVTMTRDTSISTAYMELSRLTSDDTAVYSCAREPYYDILTGYYAPRRYFDYWGQGTLVTVSS
VL: QSALTQPASVSGSPGQSITISCTGTSSDVGSYNYVSWYLQHPGKAPKLMIYDVSNRPSGVSNRFSGSKSGNTASLTISGLQAEDEADFYCSSYTSRSTYVFGTGTKVTVL
B9: antibody 454 (antibody, V domains shown)
VH: QVQLVQSGAEVKKPGASLKVSCKASGYIFTGYYMHWVRQAPGQGLEWMGWISPNSGGTKYAQKFQGRVTMTRDTSISTAYMELSRLRSDDSAVYYCAREPYYDILTGYYTPRRYLDYWGQGTLVTVSS
VL: QSALTQPASVSGSPGQSITISCTGTSSDVGDYNYVSWYQQHPGKVPKLMIYDVSHRPSGVTNRFSGSKSGNTASLTISGLRAEDEADYYCSSYTSSSTYVFGTGTKVTVL
B10: antibody 535 (antibody, V domains shown)
VH: EVQLVESGGGLIQPGGSLRLSCAASGFTVSSNYMSWVRQAPGKGLEWVSVIYSGGSTYYADSVKGRFTISRDNSKNTLYLQMNSLRAEDTAVYYCARDLTEEGDFWSASSYRRYYYYGMDVWGQGTTVTVSS
VL: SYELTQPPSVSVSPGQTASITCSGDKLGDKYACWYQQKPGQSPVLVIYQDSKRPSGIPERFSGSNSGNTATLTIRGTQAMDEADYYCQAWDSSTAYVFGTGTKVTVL
B11: antibody 552 (antibody, V domains shown)
VH: QVQLVQSGAEVKKPGSSVKVSCKASGGTFSSYGISWVRQAPGQGLEWMGRIIPILGIANYAQKFQGRVTITADKSTSTAYMELSSLRSEDTAVYYCARAVYAAGDDDYYYYYGMDVWGQGTTVTVSS
VL: SYELTQPPSVSVSPGQTARITCSGDALPKQYAYWYQQKPGQAPVVVIYKDSDRPSGIPERFSGSSSGTTVTLTISGVQAEDEADYYCQSADSSGTYQVFGTGTKVSVL
B12: antibody 530 (antibody, V domains shown)
VH: EVQLVESGGGLVQPGGSLRLSCAASGFTFSSYWMSWVRQAPGKGLEWVANIKQDGSEKYYVDSVKGRFTISRDNAKNSLYLQMNSLRAEDTAVYYCAREPQLWSEYYFDYWGQGTLVTVSS
VL: DIQMTQSPSSLSASVGDRVTITCRASQGISSWLAWYQQKPEKAPKSLIYAASSLQSGVPSRFSGSGSGTDFTLTISSLQPEDFATYYCQQYNSYPPTFGQGTRLEIK
B13: antibody 421 (antibody, V domains shown)
VH: QVQLVESGGGVVQPGRSLRLSCAASGFTFSTYAMHWVRQAPGKGLEWVAVISYDGSNKYYADSVKGRFTISRDNSKNTLYLQMNSLRAEDTAVYYCARGYGSGSYYPLYLYWGQGTLVTVSS
VL: not shown
B14: antibody 532 (antibody, V domains shown)
VH: EVQLVESGGGLVQPGGSLRLSCAASGIIVSSNYMSWVRQAPGKGLEWVSVIYSGGSTYYADSVKGRFTISRDNSKNTLYLQMNSLRAEDTAVYYCAREGLVGATLAFDYWGQGTLVTVSS
VL: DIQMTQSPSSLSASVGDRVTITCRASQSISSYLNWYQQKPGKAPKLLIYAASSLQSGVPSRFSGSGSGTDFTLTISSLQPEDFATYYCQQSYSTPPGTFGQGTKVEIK
B15: antibody 529 (antibody, V domains shown)
VH: QVQLVQSGAEVKKPGASVKVSCKASGYTFTSYGISWVRQAPGQGLEWMGWISAYNGNTNYAQKLQGRVTMTTDTSTSTAYMELRSLRSDDTAVYYCARMLIAAAGTSRDYYGMDVWGQGTTVTVSS
VL: EIVLTQSPDFQSVTPKEKVTITCRASQSIGSSLHWYQQKPDQSPKLLIKYASQSFSGVPSRFSGSGSGTDFTLTINSLEAEDAATYYCHQSSSLPHTFGGGTKVEIK
B16: antibody 378 (antibody, V domains shown)
VH: QVQLVQSGAEVKKPGASVKVSCKASGYTFTSYYMHWVRQAPGQGLEWMGIINPSGGSTSYAQKFQGRVTMTRDTSTSTVYMELSSLRSEDTAVYYCARDSGGMDDFWSGYYSPGGDYWGQGTLVTVSS
VL: QSALTQPASVSGSPGQSITISCTGTSSDVGSYNLVSWYQQHPGKAPKLMIYEGSKRPSGVSNRFSGSKSGNTASLTISGLQAEDEADYYCCSYAGSSTWVFGGGTKLTVL
B17: antibody 422 (antibody, V domains shown)
VH: QVQLVQSGSELKKPGASVKVSCKASGYTFTSYAMNWVRQAPGQGLEWMGWINTNTGNPTYAQGFTGRFVFSLDTSVSTTYLQISSLKAEDTAVYYCARVIGVVTYYYYGMDVWGQGTTVTVSS
VL: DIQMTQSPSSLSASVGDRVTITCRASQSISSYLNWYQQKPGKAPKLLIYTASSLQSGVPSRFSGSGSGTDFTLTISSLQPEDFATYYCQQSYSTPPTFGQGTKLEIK

Experiments:
[1] = biological target: SARS-CoV-2 full length spike protein, V483A mutant (SARS-CoV-2, UniProt P0DTC2 14-1273)
[2] = biological target: SARS-CoV-2 full length spike protein, V367F mutant (SARS-CoV-2, UniProt P0DTC2 14-1273)
[3] = biological target: SARS-CoV-2 full length spike protein, D614G mutant (SARS-CoV-2, UniProt P0DTC2 14-1273)
[4] = biological target: SARS-CoV-2 full length spike protein, V483A mutant, expressed on CHO cells (SARS-CoV-2, UniProt P0DTC2 14-1273)

| Binder | median fluorescence fold over isotype control [1] [fold over isotype] | median fold over isotype [2] [fold over isotype] | median fold over isotype [3] [fold over isotype] | other results |
| --- | --- | --- | --- | --- |
| B1 | 15.3 |  |  |  |
| B2 | 11.7 |  |  |  |
| B3 | 9.01 |  |  |  |
| B4 |  | 25.4 | 49.5 |  |
| B5 | 8.16 |  |  |  |
| B6 | 6.16 |  |  |  |
| B7 |  |  |  | median fluorescence fold over isotype control [4]: 18.1 fold over isotype |
| B8 |  |  |  | median fluorescence fold over isotype control [4]: 16.3 fold over isotype |
| B9 | 19.7 |  |  |  |
| B10 |  | 64.5 | 93.2 |  |
| B11 |  | 13.2 | 23.5 |  |
| B12 |  | 8.39 | 8.68 |  |
| B13 | 9.33 |  |  |  |
| B14 |  | 45.1 | 74.9 |  |
| B15 |  | 0.98 | 0.77 |  |
| B16 |  |  |  | median fluorescence fold over isotype control [4]: 14.3 fold over isotype |
| B17 | 15.2 |  |  |  |

From patent US20210292393A1 (published 2021)
